Data published in PMC10144430 (Viruses, 2023).

Columns and labels:
[1] = target: T1, cys2_(306t), soluble disulfide-bonded gD mutant (K190C-A277C) truncated at position 306 ( (herpes simplex virus)); …, UniProt Q69467 26-331, K190C | A277C, engineered disulfide bond Cys190-Cys277 (reduced where TCEP was added)); assay: SPR; Biacore 3000, room temperature, HBS-EP; gD captured via Mab 1D3 on a CM5 chip; soluble nectin-1 injected 300 s at 5 uL/min (also pre-mixed with 1 mM TCEP, binding unaffected); details: both partners purified
T1 construct: also called gD cys2; cy2; source: 293T cells, transfected, purified from supernatant (nickel column); not shown: His6, C-terminal, kept

[2] = target: T2, gDL268N_(306t), soluble gD L268N truncated at residue 306 ( (herpes simplex virus; …, UniProt Q69467 26-331, L268N); assay: as above; details: both partners purified
T2 construct: source: 293T cells, transfected, purified from supernatant (Ni-NTA resin)

B1: soluble nectin-1 (receptor)
chain: QVVQVNDSMYGFIGTDVVLHCSFANPLPSVKITQVTWQKSTNGSKQNVAIYNPSMGVSVLAPYRERVEFLRPSFTDGTIRLSRLELEDEGVYICEFATFPTGNRESQLNLTVMAKPTNWIEGTQAVLRAKKGQDDKVLVATCTSANGKPPSVVSWETRLKGEAEYQEIRNPNGTVTVISRYRLVPSREAHQQSLACIVNYHMDRFKESLTLNVQYEPEVTIEGFDGNWYLQRMDVKLTCKADANPPATEYHWTTLNGSLPKGVEAQNRTLFFKGPINYSLAGTYICEATNPIGTRSGQVEVNITEFPYTPSPPEHGRRAGPVPTA
notes: source: baculovirus-infected insect cells (Sf9), purified
nectin-1 binding, % of wt [1]: ~40 % of wt | nectin-1 binding, % of wt [2]: ~50 % of wt
